{"source": "the nanobody polyreactivity screen of Harvey et al. (2022)", "data": [{"test": "yeast display, Sf9 membrane polyspecificity reagent, FACS + sequencing; frameworks hold sequencing errors", "outline": "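Galactose-induced (36–48 hours) yeast carrying a synthetic nanobody display library were exposed to 10% biotinylated, detergent-solubilized Sf9 membrane reagent at 4 °C for 1 hour. FACS followed streptavidin microbead enrichment, using low and high (top ~1%) gates for expression (anti-HA) and reagent binding (streptavidin). Colony PCR, MiSeq 2 × 250 sequencing and CDR-length filtering followed. Labels for polyreactivity reflect the gate of origin.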", "values": [{"sequence": "QVQLVESGGGLVQAGGSLRLSCAASGITFGANTMGWYRQAPGKERELVADITVTGDGTYYADSVKGRFTISRDNAKNTVYLQMNSLKPEDTAVYYCAADFWLVSFQWDFEYDYWGQGTQVTVSS", "polyreactivity (PSR sort gate)": "low polyreactivity"}, {"sequence": "QVQLVESGGGLVQAGGSLRLSCAASGITFGAYAMGWYRQAPGKERELVAVITRGADTYYADSVKGRFTISRDNAKNTVYLQMNSLKPEDTAVYYCAAEIDLPYYYGSDDDDYWGQGTQVTVSS", "polyreactivity (PSR sort gate)": "high polyreactivity"}, {"sequence": "QVQLVESGGGLVQAGGSLRLSCAASGITFGDNVKGWYRQAPGKERELVAAISRIGDDTYYADSVKGRFTISRDNAKNTVYLQMNSLKPEDTAVYYCAAEYIYYIWSSYIDWDYYWVQGTQVTVSS", "polyreactivity (PSR sort gate)": "low polyreactivity"}, {"sequence": "QVQLVESGGGLVQAGGSLRLSCAASGITFGDYAMGWDRQAPGKERELVAGINWSGDGTYYSDSVKGRFTISRDNAKNTFYLQMNSLKPEDTAVYYCAAETFYDYGGYDYWGQGTQVTVSS", "polyreactivity (PSR sort gate)": "low polyreactivity"}, {"sequence": "QVQLVESGGGLVQAGGSLRLSCAASGITFGFNAMVWYRQAPGKETELVAAITYRGGSTYYADSVKGRFTISRDNAKNTVYLQMNSLKPEDTAVYYCAADIGRHTDNYDPRYDYWGQGTHVTVSS", "polyreactivity (PSR sort gate)": "low polyreactivity"}, {"sequence": "QVQLVESGGGLVQAGGSLRLSCAASGITFGPYAIGWYRQAPGKERELVAAISAGGGSTYYADSVKGRFTISRDNAKNSVYLQMNSLKPEDTAVYYCAAYLLHHYGGPEYYYWGQGTQVTVSS", "polyreactivity (PSR sort gate)": "high polyreactivity"}, {"sequence": "QVQLVESGGGLVQAGGSLRLSCAASGITFGPYAMGWYRQAPGKERELVATISSSGGSTYYADSVKGRFTISRDNAKNTVYLQMNSLKPEDTAVYYCNAGYAPYLGAYDYWGQGTQVTVSS", "polyreactivity (PSR sort gate)": "low polyreactivity"}, {"sequence": "QVQLVESGGGLVQAGGSLRLSCAASGITFGRNTLGRYRQAPGKVRELVAAIDSGGNTYADSVKGRFTISRDNAKNTVYLQMNSLKPEDTAVYYCAVDGCEFSSYGYWGQGTQGTVSS", "polyreactivity (PSR sort gate)": "low polyreactivity"}, {"sequence": "QVQLVESGGGLVQAGGSLRLSCAASGITFGRNTMGWYRQAPGKERELVAAIDSGGNTYADSVKGRFTISRDNAKNTVYLQMNSLKPEDTAVYYCAKDVYSYYYPYRYESWGQGTQVTVSS", "polyreactivity (PSR sort gate)": "low polyreactivity"}, {"sequence": "QVQLVESGGGLVQAGGSLRLSCAASGITFGRNTMGWYRQAPGKERELVAAIDSGGNTYADSVKWRFTISRDNAKNTVYLQMNSLKPEDTAVYYCAADIGSWYDYWGQGTQVTVSS", "polyreactivity (PSR sort gate)": "low polyreactivity"}, {"sequence": "QVQLVESGGGLVQAGGSLRLSCAASGITFGRNTMGWYRQAPGNERELVAAIDSGGNTYADSVKGRFTISRDNAKNTFYLQMNSLKPEDTAVYYCCVDGGEFSSYGYWGQGTQVTVSS", "polyreactivity (PSR sort gate)": "low polyreactivity"}, {"sequence": "QVQLVESGGGLVQAGGSLRLSCAASGITFGRNTMGWYRQAPRKERELVAAIDSGGNTYADSVKGRFTISRDNAKNTVYLQMNSLKPEDTAVYYCAVDGGEFSSYGYWGQGTQVTVSS", "polyreactivity (PSR sort gate)": "low polyreactivity"}, {"sequence": "QVQLVESGGGLVQAGGSLRLSCAASGITFGSNAMGWYRQAPGKERELVAAIRYSTGSTYYADSVKGRFTISRDNAKNTVYLQMNRLKPEDTAVYYCAKGKNRYTWYGMGYWGQGTQVTVSS", "polyreactivity (PSR sort gate)": "high polyreactivity"}, {"sequence": "QVQLVESGGGLVQAGGSLRLSCAASGITFGSYAMGWYRQAPGKEREFVAAISLSGGNTYYADSVKGRFTISRDNAKNTVYLQMNSLKPEDTAVYYCAADYEYSGYGYWGQGTQVTGSS", "polyreactivity (PSR sort gate)": "high polyreactivity"}, {"sequence": "QVQLVESGGGLVQAGGSLRLSCAASGITFGVYGMGWYRQAPGKERELVAAIDQSGDSTYYADSVKGRFTISRDNAKNTVYLQMNSLKPEDTAVYYCAAQSYDYWYDYDYWGQGTQVTVSS", "polyreactivity (PSR sort gate)": "high polyreactivity"}, {"sequence": "QVQLVESGGGLVQAGGSLRLSCAASGITFGWNVAMGWYRQAPGKERELVATITNGGSTKYADSVKGRFTISRDNAKNTVYLQMNSLKPEDTAVYYCAARVYHRFEWFHQYDYWGQGTQVTVSS", "polyreactivity (PSR sort gate)": "high polyreactivity"}, {"sequence": "QVQLVESGGGLVQAGGSLRLSCAASGITFGWYAMGWYRQAPGKERELVASISSSGSTNYADSVKGRFTISRDNAKNTVYLQMNSLKPEDTAVYYCNKDYLLRHYYIYVIEGDYWGQGTQVTVSS", "polyreactivity (PSR sort gate)": "low polyreactivity"}, {"sequence": "QVQLVESGGGLVQAGGSLRLSCAASGITFGYYAMGWYRPAPGKERELVAAITYSGGSTYYADSVKGRFTISRDNAKNTVYLQMNCLKPEDTAVYDCAAERYVRVWVAGILHYDYWGQGTQVTVSS", "polyreactivity (PSR sort gate)": "low polyreactivity"}, {"sequence": "QVQLVESGGGLVQAGGSLRLSCAASGITFGYYAMGWYRQAPGKERELVAAINWSGGSTYYADSVKGRFTISRDNAKNTVYLQMNSLKPEDTAVYYCNARPFNRYYREYDYWGQGTQVTVSS", "polyreactivity (PSR sort gate)": "high polyreactivity"}, {"sequence": "QVQLVESGGGLVQAGGSLRLSCAASGITFGYYAMGWYRQAPGKERELVAAIRSSGGSTYYADSVKGRFTISRDNAKNTVYLQMNSLKPEDTAVYYCNARYRKSSRPGYEPYERYYWGQGTQVTVSS", "polyreactivity (PSR sort gate)": "high polyreactivity"}, {"sequence": "QVQLVESGGGLVQAGGSLRLSCAASGITFGYYAMGWYRQAPGKERELVAAISSSGGSTYYADSVKGRFTISRDNAKNTVYLQMNSLKPEDTAVYFCAARYRKYSWYDYWGQGTQVTVSS", "polyreactivity (PSR sort gate)": "high polyreactivity"}, {"sequence": "QVQLVESGGGLVQAGGSLRLSCAASGITFGYYAMGWYRQAPGKERELVAAITWSGGSTYYADSVKGRFTISRDNAKNTVYLQMNSLKPEDTAVYYCNADRFGRAHVYPEFDYWGQGTQVTVSS", "polyreactivity (PSR sort gate)": "low polyreactivity"}, {"sequence": "QVQLVESGGGLVQAGGSLRLSCAASGITFHEYAMVWYRQAPGKERELVAAISASGGTTYYADSVKGRFTISRDNAKNTVYLQMNSLKPEDTAVYYCAALPLYITEYGYWGQGTQVTVSS", "polyreactivity (PSR sort gate)": "high polyreactivity"}, {"sequence": "QVQLVESGGGLVQAGGSLRLSCAASGITFHGNTMGWYRQAPGKERELVAGISTSGSITYYADSVKGRFTISRDNAKKTVYLQMNSLKPEDTAVYYCAAVSHATQIAERGYWGQGTQVTVSS", "polyreactivity (PSR sort gate)": "low polyreactivity"}, {"sequence": "QVQLVESGGGLVQAGGSLRLSCAASGITFHGYAMGWYRQAPGTERELVAAISDSGSSTYYADSVKGRFTISRDNAKNTVYLQMNSLKPEDTAVYYCAAVSGFYDQYDYWGQGTQVTVSS", "polyreactivity (PSR sort gate)": "low polyreactivity"}, {"sequence": "QVQLVESGGGLVQAGGSLRLSCAASGITFHVYAMGWYRQAPGKEREFVASISWSGGSTYYADSVKGRFTISRDNAKNTVYLQMNSLKPEDTAVYYALLTVLSAVPYSVRYDYWGQGTQVTVSS", "polyreactivity (PSR sort gate)": "high polyreactivity"}, {"sequence": "QVQLVESGGGLVQAGGSLRLSCAASGITFIPNAMGWYRQAPGKERELVAAISISGGRTYYADSVKGRFTISRDNAKNPVYLQMNSLKPEDTAVYYCAADRADFFVIRTIDPYDYWGQGTQVTVSS", "polyreactivity (PSR sort gate)": "low polyreactivity"}, {"sequence": "QVQLVESGGGLVQAGGSLRLSCAASGITFIYYAMGWYRQAPGKEREFVAAISSRDDSTYYADSVKGRFTISRDNAKNTVYLQMNSLKPEDTAVYYCAAASSRRSAIKYGYWGQGTQVTVSS", "polyreactivity (PSR sort gate)": "high polyreactivity"}, {"sequence": "QVQLVESGGGLVQAGGSLRLSCAASGITFIYYAMGWYRQAPGKEREFVAAITFRDGDTYYADSVKGRFTISRDNAKNTVYLQMNSLKPEDTAVYYCADTYWVYYYYPGYDYWGQGTQVTVSS", "polyreactivity (PSR sort gate)": "low polyreactivity"}, {"sequence": "QVQLVESGGGLVQAGGSLRLSCAASGITFIYYAMGWYRQAPGKERELVAAISKSGGRTYYADSVKGRFTISRDNAKNTVYLQMNSLKPEDTAVYYCNKLVGDDTALYDYWGQGTQVTVSS", "polyreactivity (PSR sort gate)": "high polyreactivity"}, {"sequence": "QVQLVESGGGLVQAGGSLRLSCAASGITFKGNAMGWYRQAPGKERELVAVITWSGGSTYYADSVKGRFTISRDNAKNTVYLQMNSLKPEDTAVYYCAKPWKYGDSQYDYWGQGTQVTVSS", "polyreactivity (PSR sort gate)": "low polyreactivity"}, {"sequence": "QVQLVESGGGLVQAGGSLRLSCAASGITFKLYAIGWYRQAPGKERELVATINRGSSTYYADSVKGRFTISRDNAKNTVYLQMNSLKPEDTAVYYCAADNVRKWHKMDYWGQGTQVTVSS", "polyreactivity (PSR sort gate)": "high polyreactivity"}, {"sequence": "QVQLVESGGGLVQAGGSLRLSCAASGITFKSYTMGWYRQAPGKERELVAAITASGGTTRYADSVKGRFTISRDNAKNTVYLQMNSLKREDTAVYYCNALPFRYGKRRGYWGQGTQVTVSS", "polyreactivity (PSR sort gate)": "low polyreactivity"}, {"sequence": "QVQLVESGGGLVQAGGSLRLSCAASGITFKYYAMGWYRQAPGKERELVAAIRGGRTYYADSVKGRFTISRDNAKNTVYLQMNSLKPEDTAVYYCNARYYQSGIKYNYWGQGTQVTVSS", "polyreactivity (PSR sort gate)": "high polyreactivity"}, {"sequence": "QVQLVESGGGLVQAGGSLRLSCAASGITFKYYTMGWYRPAPGKERELVAAITSRAGRTYADSVKGRFTISRDNAKNTVYLQMNSLKPEDTAVYYCDKKWRGNTYLYDYWGQGTQVTVSS", "polyreactivity (PSR sort gate)": "high polyreactivity"}, {"sequence": "QVQLVESGGGLVQAGGSLRLSCAASGITFKYYTMGWYRQAPGKERELVAAISRGGSTNYADSVKGRFTISRDNAKNTVYLQMNSLKPEDTAVYYCAVDVPEFWWYRVIYDGYYWGQGTQVTVSS", "polyreactivity (PSR sort gate)": "high polyreactivity"}, {"sequence": "QVQLVESGGGLVQAGGSLRLSCAASGITFKYYTMGWYRQAPGKERELVASINNDGSTYYADSVKGRFTISRDNAKNTVYFQMNSLKPEDTAVYYCAASGYGWFWYDYWGHGTQVTVSS", "polyreactivity (PSR sort gate)": "high polyreactivity"}, {"sequence": "QVQLVESGGGLVQAGGSLRLSCAASGITFLPTAMGWYRQAPGKERELVAAITWRGGSTYYADAVKGRFTISRDHAKNTVYLQMNSLKREDTAVYYCGATGWQYVYYNYLWLKGGYWGQGTQVSVSS", "polyreactivity (PSR sort gate)": "high polyreactivity"}, {"sequence": "QVQLVESGGGLVQAGGSLRLSCAASGITFLTYTMGWYRQAPGKERELVAAISRSGGRTYYADSVKGRFTISRDNAKNTVYLQMNSLKPEDTAVYYCAAVSANQDFDYWGQGTQVTVSS", "polyreactivity (PSR sort gate)": "high polyreactivity"}, {"sequence": "QVQLVESGGGLVQAGGSLRLSCAASGITFLYYAMGWYRQAPGKERELVAAISGGGASTYYADSVKGRFTISRDNAKNTVYLQKNSLKPEDTAVYYCAAGYRDFFRARFGYWGQGTQVTVSS", "polyreactivity (PSR sort gate)": "high polyreactivity"}, {"sequence": "QVQLVESGGGLVQAGGSLRLSCAASGITFNSYAMGWYRQAPGKERELVASITERGDSTYYADSVKGRFTLSRDNAKNTVYLQMNSLKPEDTGVYYCAAAEHLTRPSSPTQDGDHWGQGTQVTVSS", "polyreactivity (PSR sort gate)": "low polyreactivity"}, {"sequence": "QVQLVESGGGLVQAGGSLRLSCAASGITFNSYRMVWYRQAPVKERELVAAISGSGSSTYYADSVKGRFTISRDNAKNTVYLQMNSLKPEDTGVYYCADVSGKNVDFVWVLAYPRLDYWGQGTQVTVSS", "polyreactivity (PSR sort gate)": "low polyreactivity"}, {"sequence": "QVQLVESGGGLVQAGGSLRLSCAASGITFNVYAMAWYRQAPGKERELVATITGSGGSTYYADSVKGRFTISRDNAKNTVYLQMNSQKPEDTAVYYCNAYYYFWGQGSQVTVSS", "polyreactivity (PSR sort gate)": "low polyreactivity"}]}]}
